In patent US20240182536A1 (MURAL ONCOLOGY, published 2024):

T1: mouse IL-18 receptor alpha (mouse, UniProt Q61098 20-326, limits assumed)
T1 construct: also called Mouse IL18Ra; mouse IL-18R alpha
T1 sequence (looked up): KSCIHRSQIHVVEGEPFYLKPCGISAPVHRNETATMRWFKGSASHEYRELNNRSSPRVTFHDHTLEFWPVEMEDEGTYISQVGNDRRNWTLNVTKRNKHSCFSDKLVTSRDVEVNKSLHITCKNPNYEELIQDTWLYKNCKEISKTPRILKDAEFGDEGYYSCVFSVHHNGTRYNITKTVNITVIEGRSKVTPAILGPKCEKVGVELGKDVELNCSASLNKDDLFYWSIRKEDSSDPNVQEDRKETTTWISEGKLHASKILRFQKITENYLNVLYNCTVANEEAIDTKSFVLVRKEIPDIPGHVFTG

T2: mouse IL-18 binding protein (mouse, UniProt Q9Z0M9 29-193)
T2 construct: also called Mouse IL18BP; Mouse IL-18BP
T2 sequence (looked up): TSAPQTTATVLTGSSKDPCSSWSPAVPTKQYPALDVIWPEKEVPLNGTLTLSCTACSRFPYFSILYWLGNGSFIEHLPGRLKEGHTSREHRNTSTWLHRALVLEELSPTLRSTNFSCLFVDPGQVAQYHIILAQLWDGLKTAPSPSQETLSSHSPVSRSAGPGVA

T3: interleukin 18 binding protein (IL-18BP) (UniProt O95998 31-194)
T3 sequence (looked up): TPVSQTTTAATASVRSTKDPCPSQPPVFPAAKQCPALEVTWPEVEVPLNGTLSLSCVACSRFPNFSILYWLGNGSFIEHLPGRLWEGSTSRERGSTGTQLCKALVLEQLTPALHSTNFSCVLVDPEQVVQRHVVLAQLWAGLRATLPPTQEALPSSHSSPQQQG

T4: IL-18 receptor (IL-18Rα and IL-18Rβ) (UniProt Q13478 19-541; O95256 20-599, limits assumed)
T4 sequence (looked up) 1: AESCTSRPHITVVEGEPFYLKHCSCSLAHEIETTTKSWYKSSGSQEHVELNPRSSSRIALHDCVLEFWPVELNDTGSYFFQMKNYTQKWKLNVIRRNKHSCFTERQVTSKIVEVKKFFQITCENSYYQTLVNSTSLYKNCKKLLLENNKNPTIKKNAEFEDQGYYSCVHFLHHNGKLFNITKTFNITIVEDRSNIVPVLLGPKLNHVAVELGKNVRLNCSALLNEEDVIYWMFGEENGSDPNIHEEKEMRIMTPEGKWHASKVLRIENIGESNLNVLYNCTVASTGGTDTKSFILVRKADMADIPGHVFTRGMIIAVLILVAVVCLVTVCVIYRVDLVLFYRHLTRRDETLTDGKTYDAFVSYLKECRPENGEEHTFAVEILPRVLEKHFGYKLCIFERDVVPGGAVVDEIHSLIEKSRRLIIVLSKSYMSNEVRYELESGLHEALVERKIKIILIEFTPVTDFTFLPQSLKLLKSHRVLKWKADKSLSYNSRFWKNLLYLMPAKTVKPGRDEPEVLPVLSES
T4 sequence (looked up) 2: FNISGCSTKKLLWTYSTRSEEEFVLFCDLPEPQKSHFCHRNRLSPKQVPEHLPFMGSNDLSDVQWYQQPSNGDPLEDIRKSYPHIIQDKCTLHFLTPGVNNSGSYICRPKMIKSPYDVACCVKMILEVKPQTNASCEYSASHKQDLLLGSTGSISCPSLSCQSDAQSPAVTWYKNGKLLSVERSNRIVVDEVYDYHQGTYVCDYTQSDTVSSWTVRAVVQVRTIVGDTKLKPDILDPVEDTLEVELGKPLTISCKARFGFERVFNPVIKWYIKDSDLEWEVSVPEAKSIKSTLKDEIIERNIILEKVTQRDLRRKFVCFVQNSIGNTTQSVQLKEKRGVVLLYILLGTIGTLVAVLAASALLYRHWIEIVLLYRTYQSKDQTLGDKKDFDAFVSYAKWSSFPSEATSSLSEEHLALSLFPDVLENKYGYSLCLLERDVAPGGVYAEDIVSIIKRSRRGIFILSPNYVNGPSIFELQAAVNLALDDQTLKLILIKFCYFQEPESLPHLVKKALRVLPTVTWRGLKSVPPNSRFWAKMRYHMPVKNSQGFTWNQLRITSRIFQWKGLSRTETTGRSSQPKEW

B1: Comparator 5 on monoFc scaffold (Fc fusion, not shown: small tags and cut ends)
chain: HFGRLHCTTAVIRNINDQVLFVDKRQPVFEDMTDIDQSASEPQTRLIIYAYGDSRARGKAVTLSVKDSKMSTLSCKNKIISFEEMDPPENIDDIQSDLIFFQKRVPGHNKMEFESSLYEGHFLACQKEDDAFKLILKKKDENGDKSVMFTLTNLHQSNGGPSVFLFPPKPKDTLMISRTPEVTCVVVDVSHEDPEVKFNWYVDGVEVHNAKTKPREEQYNSTYRVVSVLTVLHQDWLNGKEYKCKVSNKALPAPIEKTISKAKGQPREPQVYTLPPSREEMTKNQVNLTCLVKGFYPSDIAVEWESNGQPENNYKTTPPVLDSDGSFFLNSTLTVDKSRWQQGNVFSCSVMHEALHNHYTQKSLSLS
B2: mouse IL-18 G3V/L59M on monoFc scaffold (Fc fusion, not shown: small tags and cut ends)
chain: NFVRLHSTTAVIRNINDQVLFVDKRQPVFEDMTDIDQSASEPQTRLIIYMYKDSEVRGMAVTLSVKDSKMSTLSSKNKIISFEEMDPPENIDDIQSDLIFFQKRVPGHNKMEFESSLYEGHFLASQKEDDAFKLILKKKDENGDKSVMFTLTNLHQSNGGPSVFLFPPKPKDTLMISRTPEVTCVVVDVSHEDPEVKFNWYVDGVEVHNAKTKPREEQYNSTYRVVSVLTVLHQDWLNGKEYKCKVSNKALPAPIEKTISKAKGQPREPQVYTLPPSREEMTKNQVNLTCLVKGFYPSDIAVEWESNGQPENNYKTTPPVLDSDGSFFLNSTLTVDKSRWQQGNVFSCSVMHEALHNHYTQKSLSLS
B3: mouse IL-18 G3V/H6K/L59K on monoFc scaffold (Fc fusion, not shown: small tags and cut ends)
chain: NFVRLKSTTAVIRNINDQVLFVDKRQPVFEDMTDIDQSASEPQTRLIIYMYKDSEVRGKAVTLSVKDSKMSTLSSKNKIISFEEMDPPENIDDIQSDLIFFQKRVPGHNKMEFESSLYEGHFLASQKEDDAFKLILKKKDENGDKSVMFTLTNLHQSNGGPSVFLFPPKPKDTLMISRTPEVTCVVVDVSHEDPEVKFNWYVDGVEVHNAKTKPREEQYNSTYRVVSVLTVLHQDWLNGKEYKCKVSNKALPAPIEKTISKAKGQPREPQVYTLPPSREEMTKNQVNLTCLVKGFYPSDIAVEWESNGQPENNYKTTPPVLDSDGSFFLNSTLTVDKSRWQQGNVFSCSVMHEALHNHYTQKSLSLS
B4: mouse IL-18 G3T/H6K/L59K on monoFc scaffold (Fc fusion, not shown: small tags and cut ends)
chain: NFTRLKSTTAVIRNINDQVLFVDKRQPVFEDMTDIDQSASEPQTRLIIYMYKDSEVRGKAVTLSVKDSKMSTLSSKNKIISFEEMDPPENIDDIQSDLIFFQKRVPGHNKMEFESSLYEGHFLASQKEDDAFKLILKKKDENGDKSVMFTLTNLHQSNGGPSVFLFPPKPKDTLMISRTPEVTCVVVDVSHEDPEVKFNWYVDGVEVHNAKTKPREEQYNSTYRVVSVLTVLHQDWLNGKEYKCKVSNKALPAPIEKTISKAKGQPREPQVYTLPPSREEMTKNQVNLTCLVKGFYPSDIAVEWESNGQPENNYKTTPPVLDSDGSFFLNSTLTVDKSRWQQGNVFSCSVMHEALHNHYTQKSLSLS
B5: mouse IL-18 G3V/L59K on monoFc scaffold (Fc fusion, not shown: small tags and cut ends)
chain: NFVRLHSTTAVIRNINDQVLFVDKRQPVFEDMTDIDQSASEPQTRLIIYMYKDSEVRGKAVTLSVKDSKMSTLSSKNKIISFEEMDPPENIDDIQSDLIFFQKRVPGHNKMEFESSLYEGHFLASQKEDDAFKLILKKKDENGDKSVMFTLTNLHQSNGGPSVFLFPPKPKDTLMISRTPEVTCVVVDVSHEDPEVKFNWYVDGVEVHNAKTKPREEQYNSTYRVVSVLTVLHQDWLNGKEYKCKVSNKALPAPIEKTISKAKGQPREPQVYTLPPSREEMTKNQVNLTCLVKGFYPSDIAVEWESNGQPENNYKTTPPVLDSDGSFFLNSTLTVDKSRWQQGNVFSCSVMHEALHNHYTQKSLSLS
B6: mouse IL-18 G3T/L59K on monoFc scaffold (Fc fusion, not shown: small tags and cut ends)
chain: NFTRLHSTTAVIRNINDQVLFVDKRQPVFEDMTDIDQSASEPQTRLIIYMYKDSEVRGKAVTLSVKDSKMSTLSSKNKIISFEEMDPPENIDDIQSDLIFFQKRVPGHNKMEFESSLYEGHFLASQKEDDAFKLILKKKDENGDKSVMFTLTNLHQSNGGPSVFLFPPKPKDTLMISRTPEVTCVVVDVSHEDPEVKFNWYVDGVEVHNAKTKPREEQYNSTYRVVSVLTVLHQDWLNGKEYKCKVSNKALPAPIEKTISKAKGQPREPQVYTLPPSREEMTKNQVNLTCLVKGFYPSDIAVEWESNGQPENNYKTTPPVLDSDGSFFLNSTLTVDKSRWQQGNVFSCSVMHEALHNHYTQKSLSLS
B7: IL-18 variant G3P, E6K, D54Y, S55P, Q56H, T63S, N91S, R104Q (ligand)
chain: YFPKLKSKLSVIRNLNDQVLFIDQGNRPLFEDMTDSDMRDNAPRTIFIISMYKYPHPRGMAVSISVKSEKISTLSSENKIISFKEMNPPDSIKDTKSDIIFFQQSVPGHDNKMQFESSSYEGYFLASEKERDLFKLILKKEDELGDRSIMFTVQNED
B8: IL-18 variant G3P, E6K, D54Y, S55P, T63S, N91S, R104Q (ligand)
chain: YFPKLKSKLSVIRNLNDQVLFIDQGNRPLFEDMTDSDMRDNAPRTIFIISMYKYPQPRGMAVSISVKSEKISTLSSENKIISFKEMNPPDSIKDTKSDIIFFQQSVPGHDNKMQFESSSYEGYFLASEKERDLFKLILKKEDELGDRSIMFTVQNED
B9: IL-18 variant G3P, E6K, D54Y, S55P, T63S, N91S, R104Q, Q154R (ligand)
chain: YFPKLKSKLSVIRNLNDQVLFIDQGNRPLFEDMTDSDMRDNAPRTIFIISMYKYPQPRGMAVSISVKSEKISTLSSENKIISFKEMNPPDSIKDTKSDIIFFQQSVPGHDNKMQFESSSYEGYFLASEKERDLFKLILKKEDELGDRSIMFTVRNED
B10: IL-18 variant G3Q, E6H, K53T, D54S, S55Y, N91Y, R104K (ligand)
chain: YFQKLHSKLSVIRNLNDQVLFIDQGNRPLFEDMTDSDMRDNAPRTIFIISMYTSYQPRGMAVTISVKSEKISTLSSENKIISFKEMNPPDYIKDTKSDIIFFQKSVPGHDNKMQFESSSYEGYFLASEKERDLFKLILKKEDELGDRSIMFTVQNED
B11: IL-18 variant G3P, E6V, K53A, D54W, S55P, T63S, N91L, R104K (ligand)
chain: YFPKLVSKLSVIRNLNDQVLFIDQGNRPLFEDMTDSDMRDNAPRTIFIISMYAWPQPRGMAVSISVKSEKISTLSSENKIISFKEMNPPDLIKDTKSDIIFFQKSVPGHDNKMQFESSSYEGYFLASEKERDLFKLILKKEDELGDRSIMFTVQNED

Experiments:
[1] = target: T1, mouse IL-18 receptor alpha; test: Octet BLI, monoFc scaffold
Protocol: (§1) Octet 96red instrument was used to determine affinities of IL18 proteins to BP or receptors. 5-10 ug/ml analyte proteins were used for loading on Sartorius tips (AHC or SA). […] 120-180 s loading, 200 s association and 800 s dissociation were used for kinetics. 3-7 data points were used to calculate affinities.
(§2) Several mouse variants were next tested for binding affinity to mouse IL-18R alpha and mouse IL-18BP.

[2] = target: T2, mouse IL-18 binding protein; test: Octet BLI, monoFc scaffold
Protocol: as §1, §2

[3] = target: T3, interleukin 18 binding protein (IL-18BP); test: cell-based or functional assay
[4] = target: T4, IL-18 receptor (IL-18Rα and IL-18Rβ); test: cell-based or functional assay

Binder | Kd [1] [µM] | binding result [2] | Kd [2] [µM] | EC50 (pM) + 300 nM BP, HEK-blue re-screening [3] [pM] | Ratio (HEK-blue EC50, + 300 nM BP against - BP) [3] | EC50 (pM) - BP, HEK-blue re-screening [4] [pM]
B1 | 0.00127 | no binding | – | – | – | –
B2 | 0.0174 | – | 0.00247 | – | – | –
B3 | 0.0242 | no binding | – | – | – | –
B4 | 0.0128 | no binding | – | – | – | –
B5 | 0.0145 | no binding | – | – | – | –
B6 | 0.0123 | no binding | – | – | – | –
B7 | – | – | – | 2.99 | 1.9 | 1.58
B8 | – | – | – | 1.18 | 1.6 | 0.73
B9 | – | – | – | 2.58 | 2.4 | 1.09
B10 | – | – | – | 4.69 | 1.8 | 2.63
B11 | – | – | – | 15.8 | 1.9 | 8.21
